Source: US20180105584A1 (published 2018)

Biological target: SpA on the surface of live S. aureus TCH1516 (USA300 MRSA strain) (Staphylococcus aureus strain USA300 …, UniProt A0A0H3K686 37-508)
Test: cell-based or functional assay

B1: 10901_QRF (Lys274Gln, His435Arg, Tyr436Phe Fc mutant), CHO expressed IgG1 (antibody)
heavy: EVQLVQSGAEVKKPGASVKVSCKASGYTFSHYYMHWVRQAPGQGLEWMGIINPRYGSTSYAQKFQGRVTMTRDTSTSTVYMELSSLRSEDTAVYYCARDGEVGARDLGWFDPWGQGTLVTVSSASTKGPSVFPLAPSSKSTSGGTAALGCLVKDYFPEPVTVSWNSGALTSGVHTFPAVLQSSGLYSLSSVVTVPSSSLGTQTYICNVNHKPSNTKVDKKVEPKSCDKTHTCPPCPAPELLGGPSVFLFPPKPKDTLMISRTPEVTCVVVDVSHEDPEVQFNWYVDGVEVHNAKTKPREEQYNSTYRVVSVLTVLHQDWLNGKEYKCKVSNKALPAPIEKTISKAKGQPREPQVYTLPPSRDELTKNQVSLTCLVKGFYPSDIAVEWESNGQPENNYKTTPPVLDSDGSFFLYSKLTVDKSRWQQGNVFSCSVMHEALHNRFTQKSLSLSPG
light: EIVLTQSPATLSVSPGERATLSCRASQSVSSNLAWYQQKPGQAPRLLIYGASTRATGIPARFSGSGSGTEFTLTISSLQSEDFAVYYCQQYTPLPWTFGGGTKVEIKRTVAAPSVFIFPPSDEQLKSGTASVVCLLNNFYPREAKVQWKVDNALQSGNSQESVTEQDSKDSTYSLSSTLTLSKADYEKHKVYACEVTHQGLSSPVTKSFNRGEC
B1 was tested, and the “killing of S. aureus in opsonophagocytic killing (OPK) assay with human PMNs” value was roughly 80%.
